Columns and labels:
human EGFR (human) [1] = biological target: human EGFR (human) (UniProt P00533); assay: kinetics table of FIG. 2 (SPR is told in paragraph 123 for the other clones of the table); column head 10^-4 (s-1)
human EGFR (human) [2] = biological target: human EGFR (human) (UniProt P00533); assay: kinetics table of FIG. 2 (SPR is told in paragraph 123 for the other clones of the table); column head 10^5 (s-1M-1)

B1: ER-2b (antibody, part only; not given: common light chain, V domains shown, part only)
VH: EVQLVESGGGLVQPGGSLRLSCAASGFNIYYAAMHWVRQAPGKGLEWVAFISPYYSYTSYADSVKGRFTISADTSKNTAYLQMNSLRAEDTAVYYCARYFHSSWYESSSPRAYYPGMDYWGQGTLVTVSS
Human EGFR (human) [1]
  koff: 5e-05 s⁻¹
Human EGFR (human) [2]
  kon: 280000 M⁻¹ s⁻¹
